Legend:
[1] = target: C-C chemokine receptor type 5 (CCR5) with a C-terminal 1D4 epitope tag (human) (UniProt P51681)
[2] = target: C-C chemokine receptor type 5 (CCR5) with a C-terminal 1D4 epitope tag (human) (UniProt P51681); remark: listed apart in the source

UniProt P51681, sequence (P51681 whole entry): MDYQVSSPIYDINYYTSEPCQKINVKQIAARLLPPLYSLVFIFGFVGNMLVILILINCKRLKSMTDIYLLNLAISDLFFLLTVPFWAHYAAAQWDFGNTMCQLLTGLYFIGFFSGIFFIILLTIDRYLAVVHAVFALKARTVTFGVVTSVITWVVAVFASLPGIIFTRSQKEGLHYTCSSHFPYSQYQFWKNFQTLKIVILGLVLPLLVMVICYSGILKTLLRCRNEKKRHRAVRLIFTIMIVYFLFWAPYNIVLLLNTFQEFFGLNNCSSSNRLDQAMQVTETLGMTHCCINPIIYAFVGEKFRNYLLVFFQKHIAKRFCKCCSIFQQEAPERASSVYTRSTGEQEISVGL
PSC-RANTES, sequence (P13501 24-91): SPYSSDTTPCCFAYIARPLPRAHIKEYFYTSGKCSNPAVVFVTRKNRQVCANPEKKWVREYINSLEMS

increase in intracellular Ca2+ (FLIPR Calcium 6 dye, mean RFU) of CCR5-transfected HEK293T cells on injection of 100 nM PSC-RANTES; no ATP pre-stimulation, no inhibitor [1] [RFU]	increase in intracellular Ca2+ (FLIPR Calcium 6 dye, mean RFU) of CCR5-transfected HEK293T cells on injection of 100 nM RANTES; buffer pre-injection, no inhibitor [2] [RFU]	Substance
9900		PSC-RANTES (from UniProt P13501 24-91) (ligand)
	3830	regulated on activation, normal T cell expressed and secreted (RANTES) (from UniProt P13501 24-91) (ligand)

— publication PMC8159800
